Experiments:
Type in all cases: cell-based, E. coli
[1] = tested on: bacterial cell growth; test: Bacterial cell growth / cell density in growth medium
Protocol: The starter culture (2 mL) was transferred to a limiting medium (100 mL) (50 mM Na2HPO4, 50 mM KH2PO4, 50 mM (NH4)2504, 2 mM MgSO4, 0.1% trace metals, 0.5% glycerol, 0.05% glucose, and 5% amino acids, and pH 7.25) supplemented with ampicillin (100 μg/mL), chloramphenicol (35 μg/mL), 100 μM pyruvate, 10 mM catechol, and 300 μM DTT at 30° C. Protein expression was induced by adding 0.2% L-arabinose when the optical density reached 0.8, and the culture was cultured overnight at 30° C.
A simple solution was to maximize the concentrations of catechol, pyruvate, and ammonia in a growth medium. […] In the growth medium, 50 mM pyruvate and 25 mM ammonia were added as starting materials together with various concentrations (0 mM to 10 mM) catechol.

[2] = tested on: emGFP containing an amber mutation (TAG) at position 39 or 90; test: emGFP fluorescence from cytolysate, efficiency of genetic incorporation of L-DOPA; conditions: all L-DOPA concentrations (1 mM to 3 mM), positions 39 and 90 of emGFP
From the text: (§1) A wild-type emGFP gene was obtained from commercially available sources by gene synthesis, amplified by PCR, and inserted between the BspHI and KpnI sites of pBAD/Myc-His (Invitrogen) to generate pBAD-emGFP (SEQ ID NO: 10). An amber codon (TAG) was incorporated at position 39 or 90 in the emGFP by site-specific mutants. A plasmid containing each amber codon was incorporated into E. coli DH10 used as a prokaryote host cell with pEvol-DOPA-RS1 (SEQ ID NO: 6), pEvol-DOPA-RS2 (SEQ ID NO: 7), or pEvol-DOPA-RS (SEQ ID NO: 8) to co-transform the E. coli DH10 (Comparative Example 1: […], Example 1: DOPA-RS1, Example 2: DOPA-RS2). Cells were amplified in an LB medium (lysogeny broth) supplemented with ampicillin (100 μg/mL) and chloramphenicol (35 μg/mL). […] Protein concentrations were calculated by measuring absorbance at 280 nm and using the calculated extinction coefficient (2.2×10^4 cm^−1M^−1 for emGFP).
Cells (2×10^9) were harvested by centrifugation at 10,000 rpm and 4° C. for 5 minutes, and cell pellets were lysed for 1 hour with Bugbuster (Novagen) (50 μL) supplemented with benzonase (Sigma) ([…]). The cytolysate was removed by centrifugation at 13,000 rpm and 4° C. for 10 minutes, and the supernatant was directly used for fluorescence measurement. Fluorescence was measured at 510 nm with excitation at 487 nm. […]

[3] = tested on: emGFP-E90DOPA; test: MALDI-TOF MS analysis of tryptic digest of emGFP-E90DOPA, specificity of incorporation; conditions: 3 mM L-DOPA, position 90
From the text: as §1, with “Protein expression was induced by adding 0.2% L-arabinose when the optical density reached 0.8, and the culture was cultured overnight at 37° C. […] Protein” for “Protein”, “emGFP). […]” for “emGFP).”
In order to express an emGFP-E90DOPA mutant, the expressed protein was purified, followed by tryptic degradation and then evaluated by MALDI-TOF (matrix-assisted laser desorption/ionization-time of flight) MS analysis (FIG. 2). […]

| Molecule | toxicity ([1]; 10 mM catechol) | concentration that inhibited bacterial cell growth ([1]; preliminary test, growth medium) | efficiency in incorporation of L-DOPA (emGFP expression), rank order [2] | incorporation of tyrosine [3] |
| --- | --- | --- | --- | --- |
| Oc1ccccc1O [catechol] | a reasonable toxicity was observed | more than 8 mM | – | – |
| DOPA-RS2 (protein, Artificial DOPA_RS-2 Sequence) MDEFEMIKRNTSEIISEEELREVLEKDEKSALIGFEPSGKIHLGHYLQIKKMIDLQNAGFDIIILLSDLNAYLNQKGELDEIRKIGDYNKKVFEAMGLKAKYVYGSEFQLDKDYTLNVYRLALKTTLKRARRSMELIAREDENPKVAEVIYPIMQVNDIHYLGVDVLVGGMEQRKIHMLARELLPKKVVCIHNPVLTGLDGEGKMSSSKGNFIAVDDSPEEIRAKIKKAYCPAGVVEGNPIMEIAKYFLEYPLTIKRPEKFGGDLTVNSYEELESLFKNKELHPMDLKNAVAEELIKILEPIRKRL | – | – | DOPA-RS2>DOPA-RS1>DOPA-RS | not detected |
| DOPA-RS1 (protein, Artificial DOPA_RS-1 Sequence) MDEFEMIKRNTSEIISEEELREVLEKDEKSALIGFEPSGKIHLGHYLQIKKMIDLQNAGFDIIILLSDLNAYLNQKGELDEIRKIGDYNKKVFEAMGLKAKYVYGSEFQLDKDYTLNVYRLALKTTLKRARRSMELIAREDENPKVAEVIYPIMQVNDIHYLGVDVNVGGMEQRKIHMLARELLPKKVVCIHNPVLTGLDGEGKMSSSKGNFIAVDDSPEEIRAKIKKAYCPAGVVEGNPIMEIAKYFLEYPLTIKRPEKFGGDLTVNSYEELESLFKNKELHPMDLKNAVAEELIKILEPIRKRL | – | – | DOPA-RS2>DOPA-RS1>DOPA-RS | not detected |

Source: patent US11220682B2 (SOGANG UNIVERSITY RESEARCH & BUSINESS DEVELOPMENT FOUNDATION, priority 2017, dated 2022)
